Measurements published in the supplement of paper PMC10126150.
± gives the standard deviation of the averaged measurements.

Test system: ATP
Assay: switch fluorescence ratio, 500 uM ATP over buffer (Cy3 cluster intensity, sum of 5 cycles each) (fold (ratio)); higher = stronger signal-on switching upon ATP binding; sequences stand for … in TCGTCGGCAGCGTCAGATGTGTATAAGAGACAGTTTTTTTTTTTTTTTTTTTTTTTTT…TC
Settings: aptamer strand: ATP DNA aptamer (quencher-CACCTGGGGGAGTATTGCGGAGGAAGG + anchor), 100 nM annealed; ATP concentration: 500 uM
In short: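 Cy3-labelled switching-strand clusters on a modified Illumina MiSeq flow-cell were annealed to 100 nM quencher-labelled ATP aptamer, imaged in selection buffer, then imaged after 15 min with 500 uM ATP at 22 °C. Five buffer/ATP cycles ran, with NaOH stripping and re-annealing between them. The fluorescence ratio is summed target-cycle over summed buffer-cycle Cy3 intensity per cluster, averaged per switch-domain sequence. Clusters outside 100-1000 RFU were excluded.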
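Also: ATP exposure 15 min at 22 °C before imaging.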

TGGTAATGGA
switch fluorescence ratio: 0.958 ± 0.046

TGGTAATGGT
switch fluorescence ratio: 1.03 ± 0.074

TGGTAATTTT
switch fluorescence ratio: 0.998 ± 0.017

TGGTAGAAGT
switch fluorescence ratio: 0.988 ± 0.022

TGGTAGATGG
switch fluorescence ratio: 1 ± 0.022

TGGTAGGAGG
switch fluorescence ratio: 1.002 ± 0.0056

TGGTAGGGGT
switch fluorescence ratio: 1 ± 0.014

TGGTAGGTGA
switch fluorescence ratio: 0.997 ± 0.025

TGGTATAGGC
switch fluorescence ratio: 1.04 ± 0.027

TGGTATCTTA
switch fluorescence ratio: 1.026 ± 0.0098

TGGTATGGTA
switch fluorescence ratio: 0.9969 ± 0.0099

TGGTCCACTG
switch fluorescence ratio: 1.009 ± 0.0057

TGGTCGGTAG
switch fluorescence ratio: 0.9855 ± 0.0023

TGGTCTAGGA
switch fluorescence ratio: 1.01 ± 0.011

TGGTCTTTTC
switch fluorescence ratio: 0.986 ± 0.02

TGGTGAAACC
switch fluorescence ratio: 1.013 ± 0.0035

TGGTGAAAGC
switch fluorescence ratio: 0.991 ± 0.022

TGGTGATGCA
switch fluorescence ratio: 1.08 ± 0.11

TGGTGATGCG
switch fluorescence ratio: 0.998 ± 0.064

TGGTGATTGT
switch fluorescence ratio: 1.02 ± 0.017

TGGTGCATGC
switch fluorescence ratio: 0.957 ± 0.019

TGGTGGAAAA
switch fluorescence ratio: 0.973 ± 0.02

TGGTGGATCT
switch fluorescence ratio: 0.9904 ± 0.0063

TGGTGGCGCG
switch fluorescence ratio: 0.976 ± 0.027

TGGTGGCGG
switch fluorescence ratio: 0.952 ± 0.037

TGGTGGCTTT
switch fluorescence ratio: 0.996 ± 0.015

TGGTGGGACG
switch fluorescence ratio: 1.06 ± 0.14

TGGTGGGGG
switch fluorescence ratio: 1.01 ± 0.051

TGGTGGGTAC
switch fluorescence ratio: 1.03 ± 0.084

TGGTGGGTGG
switch fluorescence ratio: 1.03 ± 0.058

TGGTGGTGTC
switch fluorescence ratio: 0.985 ± 0.05

TGGTGTATTT
switch fluorescence ratio: 1.01 ± 0.011

TGGTGTGATG
switch fluorescence ratio: 1.007 ± 0.0026

TGGTGTGGGG
switch fluorescence ratio: 0.993 ± 0.021

TGGTGTGGTT
switch fluorescence ratio: 1.02 ± 0.021

TGGTGTGTCA
switch fluorescence ratio: 1.005 ± 0.0092

TGGTTAAACT
switch fluorescence ratio: 0.98 ± 0.027

TGGTTAACGC
switch fluorescence ratio: 0.999 ± 0.013

TGGTTACATC
switch fluorescence ratio: 1.04 ± 0.015

TGGTTACCCC
switch fluorescence ratio: 1.001 ± 0.01

TGGTTACGTC
switch fluorescence ratio: 0.985 ± 0.026

TGGTTCAGCC
switch fluorescence ratio: 0.9868 ± 0.0033

TGGTTCATGT
switch fluorescence ratio: 0.9939 ± 0.008

TGGTTCTATT
switch fluorescence ratio: 1.02 ± 0.064

TGGTTGAAAT
switch fluorescence ratio: 0.975 ± 0.028

TGGTTGCAGC
switch fluorescence ratio: 1 ± 0.055

TGGTTGCTAA
switch fluorescence ratio: 1.01 ± 0.02

TGGTTGG
switch fluorescence ratio: 0.994 ± 0.0015

TGGTTGGAGT
switch fluorescence ratio: 1.006 ± 0.0035

TGGTTGGATC
switch fluorescence ratio: 0.984 ± 0.019

TGGTTGGGCA
switch fluorescence ratio: 0.993 ± 0.055

TGGTTGGGGG
switch fluorescence ratio: 0.995 ± 0.024

TGGTTGGTGG
switch fluorescence ratio: 1.05 ± 0.09

TGGTTGTCCG
switch fluorescence ratio: 1.06 ± 0.059

TGGTTTAGGC
switch fluorescence ratio: 0.997 ± 0.011

TGGTTTCCCG
switch fluorescence ratio: 0.975 ± 0.044

TGGTTTGTTA
switch fluorescence ratio: 1.02 ± 0.022

TGGTTTGTTG
switch fluorescence ratio: 0.9686 ± 0.0064

TGGTTTTCAG
switch fluorescence ratio: 0.997 ± 0.015

TGTAAAAAGG
switch fluorescence ratio: 0.98 ± 0.025

TGTAAAATGT
switch fluorescence ratio: 0.998 ± 0.029

TGTAAACCGC
switch fluorescence ratio: 1.2 ± 0.16

TGTAAATGTT
switch fluorescence ratio: 1.03 ± 0.04

TGTAACTGAG
switch fluorescence ratio: 1.0374 ± 3e-05

TGTAAGGACT
switch fluorescence ratio: 1.01 ± 0.038

TGTAAGGGGG
switch fluorescence ratio: 0.989 ± 0.039

TGTAAGGGTT
switch fluorescence ratio: 0.994 ± 0.027

TGTAATAGGG
switch fluorescence ratio: 0.979 ± 0.013

TGTAATCGTT
switch fluorescence ratio: 0.964 ± 0.07

TGTAATTTGT
switch fluorescence ratio: 1 ± 0.027

TGTACGATGC
switch fluorescence ratio: 1.12 ± 0.014

TGTACGGATT
switch fluorescence ratio: 1.0016 ± 0.00058

TGTACGGGGG
switch fluorescence ratio: 0.949 ± 0.021

TGTACTGGGC
switch fluorescence ratio: 1.06 ± 0.049

TGTAGATTGT
switch fluorescence ratio: 1.01 ± 0.049

TGTAGCATGT
switch fluorescence ratio: 2.08 ± 1.3

TGTAGGGACG
switch fluorescence ratio: 0.957 ± 0.12

TGTAGGGGGT
switch fluorescence ratio: 1.01 ± 0.041

TGTAGTAAGT
switch fluorescence ratio: 1.01 ± 0.06

TGTAGTACTG
switch fluorescence ratio: 1.02 ± 0.043

TGTAGTCTGG
switch fluorescence ratio: 0.969 ± 0.024

TGTAGTGAA
switch fluorescence ratio: 1.1 ± 0.16

TGTATATAGG
switch fluorescence ratio: 0.955 ± 0.021

TGTATCGGGT
switch fluorescence ratio: 0.979 ± 0.035

TGTATGC
switch fluorescence ratio: 0.958 ± 0.051

TGTATGTGGG
switch fluorescence ratio: 0.999 ± 0.028

TGTATGTGGT
switch fluorescence ratio: 1 ± 0.048

TGTATTTTGG
switch fluorescence ratio: 0.984 ± 0.029

TGTCACAGGG
switch fluorescence ratio: 1.063 ± 0.007

TGTCACCAGT
switch fluorescence ratio: 1.02 ± 0.016

TGTCACTGTT
switch fluorescence ratio: 0.965 ± 0.022

TGTCAGAAGC
switch fluorescence ratio: 0.994 ± 0.012

TGTCCGGTTT
switch fluorescence ratio: 1.25 ± 0.36

TGTCGAGGGC
switch fluorescence ratio: 0.965 ± 0.021

TGTCGCGTAT
switch fluorescence ratio: 0.992 ± 0.013

TGTCGGAGAT
switch fluorescence ratio: 0.987 ± 0.018

TGTCGGATTA
switch fluorescence ratio: 0.979 ± 0.011

TGTCGGATTT
switch fluorescence ratio: 1.13 ± 0.24

TGTCGGGCAG
switch fluorescence ratio: 0.9843 ± 0.0038

TGTCGGTAAT
switch fluorescence ratio: 1.03 ± 0.022

TGTCGTAATT
switch fluorescence ratio: 1 ± 0.011

TGTCGTGGGA
switch fluorescence ratio: 1.01 ± 0.038

TGTCTATGGG
switch fluorescence ratio: 0.988 ± 0.023

TGTCTCTACG
switch fluorescence ratio: 1.021 ± 0.01

TGTCTGGGGT
switch fluorescence ratio: 1 ± 0.019

TGTCTTTTGA
switch fluorescence ratio: 1.003 ± 0.0059

TGTGAACAGT
switch fluorescence ratio: 0.975 ± 0.044

TGTGAACGTA
switch fluorescence ratio: 1.01 ± 0.052

TGTGAAGAAA
switch fluorescence ratio: 0.977 ± 0.06

TGTGAATAGG
switch fluorescence ratio: 1.02 ± 0.065

TGTGACTGCC
switch fluorescence ratio: 1.04 ± 0.055

TGTGAGCTTT
switch fluorescence ratio: 0.975 ± 0.03

TGTGAGGGA
switch fluorescence ratio: 1 ± 0.029

TGTGAGTCGG
switch fluorescence ratio: 0.948 ± 0.03

TGTGATAATG
switch fluorescence ratio: 0.9831 ± 0.0017

TGTGATGTCA
switch fluorescence ratio: 1.01 ± 0.016

TGTGATTCTA
switch fluorescence ratio: 0.972 ± 0.017

TGTGATTTAC
switch fluorescence ratio: 1.05 ± 0.011

TGTGCCGCGC
switch fluorescence ratio: 1.06 ± 0.07

TGTGCCTGCT
switch fluorescence ratio: 1 ± 0.043

TGTGCTAGGG
switch fluorescence ratio: 0.98 ± 0.028

TGTGCTATGG
switch fluorescence ratio: 1.01 ± 0.02

TGTGCTATGT
switch fluorescence ratio: 0.995 ± 0.028

TGTGGAACGT
switch fluorescence ratio: 0.9813 ± 0.0082

TGTGGAAGGA
switch fluorescence ratio: 0.9862 ± 0.0039

TGTGGAAGGG
switch fluorescence ratio: 0.981 ± 0.019

TGTGGAGAAG
switch fluorescence ratio: 0.974 ± 0.025

TGTGGCACTT
switch fluorescence ratio: 0.998 ± 0.022

TGTGGCTTCC
switch fluorescence ratio: 2.25 ± 0.099

TGTGGGAGAG
switch fluorescence ratio: 0.973 ± 0.038

TGTGGGAGGC
switch fluorescence ratio: 1.04 ± 0.018

TGTGGGGAGT
switch fluorescence ratio: 0.952 ± 0.019

TGTGGGGATA
switch fluorescence ratio: 0.9904 ± 0.0011

TGTGGGGCAG
switch fluorescence ratio: 0.968 ± 0.03

TGTGGGGCTT
switch fluorescence ratio: 1.01 ± 0.035

TGTGGGGGG
switch fluorescence ratio: 0.951 ± 0.025

TGTGGGTTTA
switch fluorescence ratio: 0.988 ± 0.033

TGTGGTAAGG
switch fluorescence ratio: 0.98472 ± 0.0006

TGTGGTCCAA
switch fluorescence ratio: 0.9855 ± 0.0036

TGTGGTCGGG
switch fluorescence ratio: 0.993 ± 0.038

TGTGGTGGCA
switch fluorescence ratio: 1 ± 0.058

TGTGGTGGGA
switch fluorescence ratio: 0.98 ± 0.02

TGTGGTGTGT
switch fluorescence ratio: 1 ± 0.03

TGTGGTTACA
switch fluorescence ratio: 0.989 ± 0.025

TGTGGTTATT
switch fluorescence ratio: 0.991 ± 0.025

TGTGTAATTT
switch fluorescence ratio: 0.999 ± 0.012

TGTGTCAGAC
switch fluorescence ratio: 1.01 ± 0.03

TGTGTCAGGG
switch fluorescence ratio: 1.01 ± 0.022

TGTGTCAGGT
switch fluorescence ratio: 0.997 ± 0.05

TGTGTGAAGT
switch fluorescence ratio: 1.01 ± 0.059

TGTGTGATTC
switch fluorescence ratio: 1.3 ± 0.49

TGTGTGGGGG
switch fluorescence ratio: 1.01 ± 0.031

TGTGTGTGGT
switch fluorescence ratio: 1.006 ± 0.0062

TGTGTTAAGA
switch fluorescence ratio: 0.9898 ± 0.0095

TGTGTTAGAA
switch fluorescence ratio: 1.01 ± 0.015

TGTGTTATGG
switch fluorescence ratio: 0.968 ± 0.049

TGTGTTCTGG
switch fluorescence ratio: 0.986 ± 0.011

TGTGTTTAAA
switch fluorescence ratio: 0.967 ± 0.021

TGTGTTTTGT
switch fluorescence ratio: 0.979 ± 0.02

TGTTAAAAAG
switch fluorescence ratio: 0.991 ± 0.013

TGTTAAGGGC
switch fluorescence ratio: 1 ± 0.039

TGTTACATGT
switch fluorescence ratio: 1.04 ± 0.041

TGTTAGAGGG
switch fluorescence ratio: 1.01 ± 0.063

TGTTAGATAG
switch fluorescence ratio: 1 ± 0.025

TGTTAGGC
switch fluorescence ratio: 1.01 ± 0.05

TGTTAGGGCT
switch fluorescence ratio: 0.918 ± 0.021

TGTTAGGGGA
switch fluorescence ratio: 1.01 ± 0.02

TGTTAGTCCC
switch fluorescence ratio: 0.9897 ± 0.0022

TGTTAGTCGT
switch fluorescence ratio: 1.013 ± 0.0091

TGTTAGTGGG
switch fluorescence ratio: 1.02 ± 0.032

TGTTATCAGG
switch fluorescence ratio: 1.01 ± 0.038

TGTTATTACC
switch fluorescence ratio: 1 ± 0.013

TGTTCCGTCT
switch fluorescence ratio: 0.9732 ± 0.0095

TGTTCGAGGC
switch fluorescence ratio: 1.03 ± 0.013

TGTTCGGAAA
switch fluorescence ratio: 1.01 ± 0.014

TGTTCTAGTA
switch fluorescence ratio: 1.27 ± 0.45

TGTTCTTCCG
switch fluorescence ratio: 1.23 ± 0.1

TGTTCTTGGG
switch fluorescence ratio: 0.985 ± 0.026

TGTTGAGCAA
switch fluorescence ratio: 1.6 ± 0.013

TGTTGATAGC
switch fluorescence ratio: 0.992 ± 0.037

TGTTGATAGT
switch fluorescence ratio: 1 ± 0.023

TGTTGATGGT
switch fluorescence ratio: 0.976 ± 0.031

TGTTGATTTT
switch fluorescence ratio: 1.03 ± 0.043

TGTTGCCCCT
switch fluorescence ratio: 1.02 ± 0.051

TGTTGCCGAT
switch fluorescence ratio: 0.986 ± 0.019

TGTTGCTAGG
switch fluorescence ratio: 0.992 ± 0.031

TGTTGGGGGA
switch fluorescence ratio: 0.979 ± 0.03

TGTTGGTCTG
switch fluorescence ratio: 0.978 ± 0.031

TGTTGGTCTT
switch fluorescence ratio: 0.952 ± 0.032

TGTTGGTGGC
switch fluorescence ratio: 1.02 ± 0.071

TGTTGGTTGT
switch fluorescence ratio: 0.9935 ± 0.0067

TGTTGTAGGG
switch fluorescence ratio: 1.02 ± 0.02

TGTTGTAGTG
switch fluorescence ratio: 0.973 ± 0.017

TGTTGTGTTA
switch fluorescence ratio: 0.9965 ± 5.6e-06

TGTTGTTTAC
switch fluorescence ratio: 1.0216 ± 0.00012

TGTTTAAGAC
switch fluorescence ratio: 1.05 ± 0.092

TGTTTACACT
switch fluorescence ratio: 1.01 ± 0.051

TGTTTACGGT
switch fluorescence ratio: 0.983 ± 0.032

TGTTTAGAAA
switch fluorescence ratio: 1.01 ± 0.014

TGTTTAGGGT
switch fluorescence ratio: 0.997 ± 0.029
